In experiment [1] the target is T1, Strep tagged recombinant human PD-1 (human, UniProt Q15116 25-167, limits assumed).
T1 construct: also called Strep tagged human PD-1; not shown: Strep tag
The experiment can be described thus: SPR Biacore T200, single cycle kinetics; Strep tagged PD-1 amine coupled to CM-5 (14 RU). The procedure: Single cycle kinetics assays were used to study the interaction between human PD-1 with Humabody® on a Biacore T200 instrument (GE Healthcare). Strep tagged recombinant human PD-1 was amine coupled to one flow cell of a CM-5 chip to create a low density surface (14 RU) using standard Biacore reagents. For the reference flow cell, a blank immobilisation was carried out. A five-point, three-fold dilution series of each Humabody® was made with a top concentration of 25 nM. The binding kinetics were followed by flowing the Humabody® over the chip surface in HBS EP+ buffer at a flow rate of 30 μl/min. The contact time for each of the association steps was 180 seconds and the dissociation step was 3300 seconds. The data was fitted to a 1:1 binding model after double reference subtraction using the Biacore T200 Evaluation software.
On the technique in general: In SPR one partner is held on a chip, and binding of the other changes the refractive index at the surface.

Experiment [2] has as its target T2, cynomolgus PD-1 recombinant protein (cynomolgus).
T2 construct: also called cyno PD-1; cynomolgus PD-1 (Acro Biosystems cat no. PD-1-05254)
The experiment can be described thus: HTRF binding assay; 2 nM PD-1, anti human-Fc cryptate and anti His-D2. The method, then:
Purified VH were tested for their ability to bind to human PD-1 (R&D Systems cat no. 1086-PD), cynomolgus PD-1 (Acro Biosystems cat no. PD-1-05254) and mouse PD-1 (R&D Systems cat no. 1021-PD) in an HTRF Binding assay format. All reagents and serially diluted VH were prepared in assay buffer containing PBS, 0.1% BSA and 0.4M Potassium Fluoride. Samples or assay buffer (non-specific binding) were incubated with 2 nM human/cynomolgus or mouse PD-1, 1 nM Anti human-Fc Cryptate PAb (Cisbio cat. no. 61HFCKLB) and 30 nM anti His-D2 (CisBio cat no 61HISDLA) in black 384-shallow well assay plates for a minimum of 3 hours at room temperature. Time-resolved fluorescent emission at 620 nm and 665 nm was measured following excitation at 337 nm on the BMG PHERAstar plate reader. The HTRF ratio were calculated ((665 nm emission/620 nm emission)*10000) and the data corrected for (non-specific binding) to give the specific binding signal.
A general note: TR-FRET usually uses a lanthanide donor and a delayed reading to cut background.

The results in this text go back to patent publication US20230357405A1 (published 2023).

As usually defined, the kon is the rate constant with which the complex forms. For orientation: EC50 means the midpoint of the concentration-response curve.

T1 sequence (Q15116 25-167 limits assumed): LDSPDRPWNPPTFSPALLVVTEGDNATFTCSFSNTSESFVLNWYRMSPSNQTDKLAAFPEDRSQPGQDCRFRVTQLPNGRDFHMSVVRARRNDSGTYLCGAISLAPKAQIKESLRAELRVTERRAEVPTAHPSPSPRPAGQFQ

B1: Humabody® 1.80 (VHH)
VHH: EVQLVESGGGLVKPGGSLRLSCAASGFTFSDSSMTWMRQAPGKGLEWVSYISSGGGVKFYADSVKGRFTISRDNAKNSLYLQMNSLRAEDTAVYYCAREAPLRLGESPHDAFDISGQGTMVTVSS
notes: human VH single domain antibody
As to B1, the association rate constant (kon) in experiment [1] worked out at 176000 M⁻¹ s⁻¹.

B2: Humabody® 1.1 (VHH)
VHH: QVQLVESGGGLVKPGGSLRLSCAASGFTFSDYTMTWMRQAPGKGLEWVSYISTGGTIKYYTDSVKGRFTISRDNAKNSLYLQMNSLRADDTAVYYCAREAPLRLGESPHDAFDIWGQGTMVTVSS
notes: human VH single domain antibody; also called clone 1.1
Consider B2, for which the concentration giving a half-maximal response (EC50) in experiment [2] was 6.3 nM.

B3: Humabody® 1.57 (VHH)
VHH: QVQLVESGGGLVKPGGSLRLSCAASGFTFSDNSMTWMRQAPGKGLEWVSYISSGGGVIFYADSVKGRFTISRDNAKNSLYLQMNSLRADDTAVYYCAREAPLRLGESPHDAFDISGQGTMVTVSS
notes: as for B1
In the case of B3, in experiment [2], the EC50 is 0.75 nM.

B4: Humabody® 1.92 (VHH)
VHH: EVQLVESGGGLVKPGGSLRLSCAASGFTFSDESMTWMRQAPGKGLEWVSYISSGGGVKFYADSVKGRFTISRDNAKNSLYLQMNSLRAEDTAVYYCAREAPLRLGESPHDAFDISGQGTMVTVSS
notes: as for B1
Take B4: in experiment [2], the concentration for a half-maximal effect (EC50) was 4.1 nM.
